Residue numbers refer to the chain shown, from its start. Values belong to the binder of their own block, whether it stands above or below them.
Experiments:
[1] = target: T1, C-terminal His-tagged human DLL4 (amino acid 1-404) (human, UniProt Q9NR61 26-404); experiment: SPR BIAcore-3000, antibody coupled to CM5 chip, DLL4-His injected, 25 C
T1 construct: range 26-404; the text calls it human DLL4-His; also called DLL4-His; human DLL4-His; not shown: C-terminal His tag
Protocol: (§1) To determine the binding affinity of the anti-DLL4 Mabs, surface plasmon resonance (SRP) measurement with a BIAcore™-3000 was used (BIAcore, Inc., Piscataway, N.J.). Briefly, carboxymethylated dextran biosensor chips (CM5, BIAcore Inc.) were activated with N-ethyl-N′-(3-dimethylaminopropyl)-carbodiimide hydrochloride (EDC) and N-hydroxysuccinimide (NHS) according to the supplier's instructions. […] Next, IM ethanolamine was injected to block unreacted groups. […] Association rates (kon) and dissociation rates (koff) were calculated using a simple one-to-one Langmuir binding model (BIAcore Evaluation Software version 3.2). The equilibrium dissociation constant (Kd) was calculated as the ratio koff/kon.

[2] = target: T2, His-tagged murine DLL4 (murine, UniProt Q9JI71 27-405, limits assumed); experiment: as above
T2 construct: domain: ECD5.5; also called murine DLL4-His; murine Delta4 (ECD5.5); not shown: His tag
T2 sequence (Q9JI71 27-405 limits assumed): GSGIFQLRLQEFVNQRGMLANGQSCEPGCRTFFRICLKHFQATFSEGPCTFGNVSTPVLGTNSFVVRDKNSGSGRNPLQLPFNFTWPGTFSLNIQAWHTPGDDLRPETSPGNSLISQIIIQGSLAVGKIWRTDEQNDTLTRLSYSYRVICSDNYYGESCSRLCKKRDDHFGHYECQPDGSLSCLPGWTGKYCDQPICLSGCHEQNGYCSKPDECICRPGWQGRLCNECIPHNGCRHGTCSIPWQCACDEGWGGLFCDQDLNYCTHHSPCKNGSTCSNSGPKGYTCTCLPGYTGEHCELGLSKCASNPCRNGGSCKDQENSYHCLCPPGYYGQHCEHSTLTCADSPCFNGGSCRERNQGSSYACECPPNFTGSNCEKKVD
Protocol: as §1

T1 sequence (Q9NR61 26-404 limits assumed): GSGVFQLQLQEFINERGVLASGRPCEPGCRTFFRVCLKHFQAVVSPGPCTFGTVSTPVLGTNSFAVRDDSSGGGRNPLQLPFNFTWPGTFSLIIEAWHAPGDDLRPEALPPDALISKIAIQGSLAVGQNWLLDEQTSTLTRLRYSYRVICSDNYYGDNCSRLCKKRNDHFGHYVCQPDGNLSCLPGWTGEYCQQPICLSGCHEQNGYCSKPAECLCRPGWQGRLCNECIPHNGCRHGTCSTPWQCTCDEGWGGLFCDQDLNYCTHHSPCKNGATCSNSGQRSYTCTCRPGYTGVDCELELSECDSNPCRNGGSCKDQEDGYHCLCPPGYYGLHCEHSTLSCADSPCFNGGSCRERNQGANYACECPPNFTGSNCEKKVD

- Kd [1]: 25000 pM
- koff [1]: 0.00074 s⁻¹
- kon [1]: 30000 M⁻¹ s⁻¹
- Kd [2]: 28000 pM
- koff [2]: 0.0016 s⁻¹
- kon [2]: 57000 M⁻¹ s⁻¹
B1: YW26 (antibody, V domains shown)
VH: EVQLVESGGGLVQPGGSLRLSCAASGFTFTDNWISWVRQAPGKGLEWVGVINPNSGSTDYADSVKGRFTISADTSKNTAYLQMNSLRAEDTAVYYCARDNFGGYFDYWGQGTLVTVSS
VL: DIQMTQSPSSLSASVGDRVTITCRASQDVSTAVAWYQQKPGKAPKLLIYSASFLYSGVPSRFSGSGSGTDFTLTISSLQPEDFATYYCQQSYTTPPTFGQGTKVEIK
notes: Only the six HVRs are tied to the clone; also called clone 152.26; anti-DLL4 antibody

- Kd [1]: 370 pM
- koff [1]: 6.6e-05 s⁻¹
- kon [1]: 180000 M⁻¹ s⁻¹
- Kd [2]: 220 pM
- koff [2]: 7.3e-05 s⁻¹
- kon [2]: 330000 M⁻¹ s⁻¹
B2: YW26.14 (antibody, V domains shown)
VH: B1 VH with T28S, T30R
VL: B1 VL with Y92V, T93N, T94G, P96A
notes: also called clone 152.26.14

- Kd [1]: 250 pM
B3: YW26.6 (antibody, V domains shown)
VH: B1 VH with V50L, N54Q, T58S
VL: B1 VL with T94G, P95Q, P96S
notes: Only the six HVRs are tied to the clone; also called clone 152.26.6

- Kd [1]: 350 pM
- koff [1]: 6.7e-05 s⁻¹
- kon [1]: 190000 M⁻¹ s⁻¹
- Kd [2]: 180 pM
- koff [2]: 6.5e-05 s⁻¹
- kon [2]: 360000 M⁻¹ s⁻¹
B4: YW26.34 (antibody, V domains shown)
VH: B1 VH with V50L, N54T, D59I
VL: B1 VL with T94G, P96S
notes: Only the six HVRs are tied to the clone; also called clone 152.26.34
